In assay [1] the target is anti-CEP humanized antibody (anti-CEP huAb), full length. As to the kind of experiment: competitive ELISA, CEP-BSA coated, inhibitor preincubated with anti-CEP huAb. Background: ELISA stands for enzyme-linked immunosorbent assay.
Assay [2] has the same target. Put plainly: competitive ELISA, CEP-BSA coated.
Assay [3] has as its target T1, CEP-modified human serum albumin (CEP-HSA) (human, UniProt P02768 25-609, 2-(omega-carboxyethyl)pyrrole (CEP) derivatives of primary amino groups; sites and number not stated).
T1 construct: The antibodies recognise the CEP hapten on the carrier protein
Put plainly: BIAcore 3000, CEP-HSA immobilized on CM5 chip, single-cycle kinetics, bivalent fit. For orientation: SPR reads the build-up and loss of mass on a sensor chip optically.

The target in assay [4] is T1, CEP-modified human serum albumin …. Put plainly: BIAcore SPR, single-cycle kinetics; CEP-HSA immobilised as ligand, antibody as analyte [panel A, table under the sensorgram].
Description: (§1) The binding affinity of each antibody was measured using BIAcore technology.
The target is the same in assay [5]. Put plainly: BIAcore, CEP-HSA on chip.
Description: as §1
Assay [6] shares this target. As to the kind of experiment: BIAcore SPR, single-cycle kinetics; CEP-HSA immobilised as ligand, antibody as analyte [panel B, table under the sensorgram].
Description: as §1
The target is the same in assay [7]. Put plainly: BIAcore single-cycle kinetic analysis.
The target is the same in assay [8]. As to the kind of experiment: BIAcore SPR, single-cycle kinetics; CEP-HSA immobilised as ligand, antibody as analyte [table under the sensorgram].

One may read the IC50 as the concentration needed to halve the response being measured. A low value points to higher potency. Turning to “CEP-modified human serum albumin (CEP-HSA) (from UniProt P02768 25-609)”, the IC50 in assay [1] amounted to 0.0056 µM.

For the molecule CHP-BSA (from UniProt P02769 25-607), the fold lower cross-reactivity than with anti-CEP mumAb in assay [2] is < 10 fold. This molecule also gave a 50% inhibitory concentration (IC50) in assay [1] of 4690 µM.

Regarding CPP-HSA (from UniProt P02768 25-609), in assay [1], the IC50 was found to be 10.5 µM.

B1: anti-CEP murine monoclonal antibody (anti-CEP mumAb), hybridoma clone 2D3.3G9-1 (antibody, mouse IgG2a, V domains shown)
VH: QIQLIQSGPELKKPGETVKISCKPSGYAFTKYGMDWVKQAPGEGLKWMGRINTYTGEPTYADDFKGRFAFSLEASASTAYLQINNLKNEDTATYFCARRRDGYPFAYWGQGTLVTVSS
VL: DIVMTQSHKFMSTSVRDRVSITCKASQDVSTAVAWYQQKPGQSPKILIYSASYRFPGVPDRFTGSGSGTDFTFTISSVQAEDLAVYYCHQHYFIPYTFGGGTKLEIK
notes: also called murine anti-CEP mAb; mouse counterpart
A word on the koff: it is the first-order rate constant of dissociation. The low end stands for a long-lived complex, the high end for a short-lived complex. The kon is the second-order rate constant of association. Read a high kon as faster complex formation. In assay [3], B1 returned a Kd of 0.00016 µM. In assay [4], the dissociation rate constant (koff) is 0.00377 s⁻¹ and the kon was found to be 2.36e+07 M⁻¹ s⁻¹.

B2: anti-CEP humanized antibody (anti-CEP huAb), full length (antibody, human IgG1, V domains shown)
VH: QVQLVQSGAEVKKPGASVKVSCKASGYAFTKYGMDWVRQAPGQGLEWMGRINTYTGEPTYADDFKGRVTITADTSTSTAYMELSSLRSEDTAVYYCARRRDGYPFAYWGQGTLVTVSS
VL: DIVMTQSPDSLAVSLGERATINCKASQDVSTAVAWYQQKPGQPPKLLIYSASYRFPGVPDRFSGSGSGTDFTLTISSLQAEDVAVYYCHQHYFIPYTFGGGTKLEIK
notes: Human IgG1 heavy constant region (vector pFUSE-CHIg-hG1) and human kappa constant region (pFUSE2-CLIg-hk); expressed in CHO-S cells, clone A1; also called original anti-CEP huAb; anti-CEP humAb
With B2, the “fold weaker affinity than anti-CEP mumAb” value in assay [5] was ~10 fold. In assay [3], this molecule returned a Kd of 0.00158 µM. In assay [6], this molecule came in with a koff of 0.00025 s⁻¹ and a kon of 159000 M⁻¹ s⁻¹.

B3: Mutant 2F1, full length anti-CEP huAb mutant (antibody, V domains shown)
VH: QVQLVQSGAEVKKPGASVKVSCKASGYALTKYGMDWVRQAPGQGLEWMGRINTYTGEPTYADDFKGRVTITADTSTSTAYMELSSLRSEDTAVYYCARRRGGYPFAYWGQGTLVTVSS
VL: DIVMTQSPDSLAVSLGERATINCKASQDVSTAVAWYQQKPGQPPKLLIYSASYRFPGVPDRFSGSGSGTDFTLTISSLQAEDVAVYYCHQHYFIPYTFGGGTKLEIK
On to B3, for which, in assay [7], the Kd came out at 0.00074 µM and the “fold stronger affinity than original anti-CEP huAb” value was ~2 fold. In assay [8], this molecule came in with a koff of 0.000228 s⁻¹ and a kon of 308000 M⁻¹ s⁻¹.
